This passage reports EC50 (read off the curve) and Kd results from patent US20230242645A1.

In test [1] the target is human PD-L1 on CHO-K1 cells (WBP315.CHO-K1.hPro1.C11) (human) (UniProt Q9NZQ7). Kind of test: FACS on human PD-L1 expressing CHO-K1 cells, FITC anti-human IgG.
The target of test [2] is mouse PD-L1 on 293F cells (WBP315.293F.mPro1.C1) (mouse) (UniProt Q9EP73). Description: FACS on mouse PD-L1 expressing 293F cells, FITC anti-human IgG.
Test [3] addresses human PD-L1 extracellular domain, his tag (W315-hPro1.ECD.his) (human) (UniProt Q9NZQ7). Kind of test: SPR (Biacore T200), antibody captured on anti-human Fc, antigen as analyte, 25 °C.
Test [4] has as its target cynomolgus monkey PD-L1 on 293F cells (WBP315.293F.cPro1.2A) (cynomolgus monkey) (UniProt G7PSE7). Description: FACS on cynomolgus PD-L1 expressing 293F cells, FITC anti-human IgG.

Chain of human PD-L1 extracellular domain, his tag (W315-hPro1.ECD.his) (human) (Q9NZQ7 19-238): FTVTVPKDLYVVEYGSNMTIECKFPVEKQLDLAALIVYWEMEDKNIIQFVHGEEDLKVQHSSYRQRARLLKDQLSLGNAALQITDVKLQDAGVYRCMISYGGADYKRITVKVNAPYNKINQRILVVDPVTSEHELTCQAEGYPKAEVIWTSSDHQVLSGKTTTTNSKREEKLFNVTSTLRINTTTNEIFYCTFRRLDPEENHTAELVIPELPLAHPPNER
Chain of cynomolgus monkey PD-L1 on 293F cells (WBP315.293F.cPro1.2A) (cynomolgus monkey) (G7PSE7 entry or part of it limits assumed): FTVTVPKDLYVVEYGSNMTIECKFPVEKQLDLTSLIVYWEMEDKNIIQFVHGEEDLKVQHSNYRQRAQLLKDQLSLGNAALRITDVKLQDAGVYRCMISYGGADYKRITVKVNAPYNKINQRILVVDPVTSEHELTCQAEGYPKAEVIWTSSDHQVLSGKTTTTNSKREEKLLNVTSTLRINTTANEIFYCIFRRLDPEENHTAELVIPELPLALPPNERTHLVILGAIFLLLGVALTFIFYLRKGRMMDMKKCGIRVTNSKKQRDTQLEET
Chain of human PD-L1 on CHO-K1 cells (WBP315.CHO-K1.hPro1.C11) (human) (Q9NZQ7 19-290): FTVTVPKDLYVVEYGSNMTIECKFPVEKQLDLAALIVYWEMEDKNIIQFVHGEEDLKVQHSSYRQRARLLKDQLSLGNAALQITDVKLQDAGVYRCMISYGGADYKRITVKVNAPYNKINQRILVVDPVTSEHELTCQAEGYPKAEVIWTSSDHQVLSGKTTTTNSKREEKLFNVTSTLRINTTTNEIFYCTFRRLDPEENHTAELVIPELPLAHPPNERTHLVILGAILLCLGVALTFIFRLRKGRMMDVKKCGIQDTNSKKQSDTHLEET
Chain of mouse PD-L1 on 293F cells (WBP315.293F.mPro1.C1) (mouse) (Q9EP73 19-290): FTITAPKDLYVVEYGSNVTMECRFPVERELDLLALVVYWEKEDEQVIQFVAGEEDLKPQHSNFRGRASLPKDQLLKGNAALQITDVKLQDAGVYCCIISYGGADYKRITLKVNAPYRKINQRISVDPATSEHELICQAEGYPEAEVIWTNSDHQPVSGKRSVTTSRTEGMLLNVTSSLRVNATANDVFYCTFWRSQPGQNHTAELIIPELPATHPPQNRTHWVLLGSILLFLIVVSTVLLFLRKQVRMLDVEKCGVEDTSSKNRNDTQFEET

As a reminder, the EC50 (read off the curve) is the concentration giving half of the maximal effect. As a reminder, the Kd is a measure of binding affinity in units of concentration. On to “W315-BMK8.uIgG1K(RKNA) (Atezolizumab) (antibody)”, for which the results for the concentration for a half-maximal effect (EC50 (read off the curve)) in test [1], in test [2] and in test [4] were 0.1 nM, 2 nM and 2 nM, respectively. Further, in test [3], the Kd is 0.0608 nM.
